{"source": "paper PMC10814857", "about": "“Functional Classification and Interaction Selectivity Landscape of the Human SH3 Domain Superfamily” (Cells, 2024)", "origin": "cited, not measured here", "molecules": {"B1": {"name": "PEDAGAGENRRVSGNNSPSLSNGGFKPSRPPRPSRPPPPTPRRPASVNGSPSATSESDGSSTG (peptide)", "chain": "PEDAGAGENRRVSGNNSPSLSNGGFKPSRPPRPSRPPPPTPRRPASVNGSPSATSESDGSSTG", "notes": "published Itch proline-rich peptide"}}, "key": {"PACSIN1 SH3 domain": {"molecular_target": "PACSIN1 SH3 domain", "set-up": "method as in ref [60] (a number printed in a supplementary file, which may have a reference list of its own: not looked up in the article's list)", "conditions": "PACSIN1, ITC, Table S4; ref [60]"}, "[1]": {"molecular_target": "bPIX (ARHGEF7) SH3 domain", "set-up": "method as in 3 sources, one per row (each row's own in cited_ref): ref [33] (a number printed in a supplementary file, which may have a reference list of its own: not looked up in the article's list) ||| ref [60] (a number printed in a supplementary file, which may have a reference list of its own: not looked up in the article's list) ||| ref [34] (a number printed in a supplementary file, which may have a reference list of its own: not looked up in the article's list)", "conditions": "ITC, Table S4, ref [60]"}, "[2]": {"molecular_target": "SH3GL2 (Endophilin-A1) SH3 domain", "conditions": "ITC, Table S4, ref [60]", "protocol": "page 6: […] […] […] PAK2 […] PXXXPR PXXXPR 1.05 ITC [34] TRSVI ITSN1-2 Synthetic […] Exceptional [W/F][R/W]xSx[A/ 53 ITC [29] peptide G][F/Y][L/V]xGP[ W/L] NCK1-2 N-WASP GP[…] … 147 HSQC [64] VA[…] 199 PLCG1 SOS1 AAPV[…] … 0.20mM SPR [75] AADS[…] 0.40mM AAES[…] 0.70mM AAIA[…] 0.28mM BAIAP2L1 EspFUR45 IPP[…] … 0.5 nM ITC [76] (IRTKS) 9 SORBS2- Synthetic […] Exceptional XRXGXAYLXYVX 38 ITC [29] 1 peptide Synthetic RL[…](L/P) ..."}}, "data": [{"molecule": "B1", "values": [{"measurement": "Kd", "setting": "PACSIN1 SH3 domain", "value": 4.33, "unit": "µM"}, {"measurement": "Kd", "setting": "[1]", "value": 1.44, "unit": "µM"}, {"measurement": "Kd", "setting": "[2]", "value": 0.457, "unit": "µM"}]}]}
